# Measured values reported in article PMC10510648.
# What was measured:
# [1] = tested on: RirA N8D (Rhizobium leguminosarum strain 8401?); assay: SPR; details: SPR: 10 mM Hepes, 150 mM NaCl, 0.05% Tween, pH 7.4, 20 °C, 0-125 nM dimer; EMSA: 10 mM Hepes, 50 mM NaCl, 2.5% sucrose, 2.5 mM MgCl2, 1 mM DTT, pH 7.9, on ice …
# [2] = tested on: RirA wild type (Rhizobium leguminosarum strain 8401); assay: SPR; details: SPR: 10 mM Hepes, 150 mM NaCl, 0.05% Tween, pH 7.4, 20 °C, 0-125 nM dimer; EMSA: 10 mM Hepes, 50 mM NaCl, 2.5% sucrose, 2.5 mM MgCl2, 1 mM DTT, pH 7.9, on ice …
substance,measurement,setting,value
fhuA IRO box 30 bp SPR oligo,Kd,[1],10.3 nM
same,Kd,[2],12.8 nM
